Assay results as given in the supplement of paper PMC10567573.

B1: SOAT1 (parent)
chain: PSNGRIDIKQLIAKKIKLTAEAEE

Variants of: B1
Assay: protein stability index of a GFP-peptide fusion (GPS, HEK-293T) (PSI 1-6); higher = more stable
Details: c terminus: a fixed tail appended
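Note: lentivirally expressed fusions sorted by FACS into six bins by GFP to DsRed ratio, PSI derived from sequencing read proportions per bin multiplied by bin number.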

Point of comparison: PSNKRIDIKQLIAKKIKLTAEAEE, protein stability index 3.77. Against it:
- PSNGFIDIKQLIAKKIKLTAEAEE — lower, 3.49
- PSNGTIDIKQLIAKKIKLTAEAEE — higher, 4
- PSNGNIDIKQLIAKKIKLTAEAEE — higher, 3.94
- PSNGPIDIKQLIAKKIKLTAEAEE — higher, 4.16
- PSNGDIDIKQLIAKKIKLTAEAEE — higher, 4.47
- PSNGQIDIKQLIAKKIKLTAEAEE — lower, 3.13
- PSNGKIDIKQLIAKKIKLTAEAEE — lower, 3.68
- PSNGCIDIKQLIAKKIKLTAEAEE — lower, 3.66
- PSNGVIDIKQLIAKKIKLTAEAEE — higher, 3.82
- PSNGIIDIKQLIAKKIKLTAEAEE — higher, 3.93
- PSNGAIDIKQLIAKKIKLTAEAEE — higher, 3.95
- PSNGEIDIKQLIAKKIKLTAEAEE — higher, 4.42
- PSNGWIDIKQLIAKKIKLTAEAEE — lower, 3.48
- PSNGSIDIKQLIAKKIKLTAEAEE — lower, 3.75
- PSNGYIDIKQLIAKKIKLTAEAEE — higher, 3.81
- PSNGLIDIKQLIAKKIKLTAEAEE — higher, 4.05
- PSNGMIDIKQLIAKKIKLTAEAEE — lower, 3.55
- PSNGGIDIKQLIAKKIKLTAEAEE — higher, 4.04
- PSNGHIDIKQLIAKKIKLTAEAEE — higher, 4
- PSNGRADIKQLIAKKIKLTAEAEE — higher, 3.79
- PSNGRRDIKQLIAKKIKLTAEAEE — lower, 3.4
- PSNGRVDIKQLIAKKIKLTAEAEE — lower, 3.32
- PSNGRYDIKQLIAKKIKLTAEAEE — lower, 3.51
- PSNGRGDIKQLIAKKIKLTAEAEE — higher, 4.1
- PSNGRLDIKQLIAKKIKLTAEAEE — lower, 3.18
- PSNGRDDIKQLIAKKIKLTAEAEE — higher, 4.4
- PSNGRFDIKQLIAKKIKLTAEAEE — lower, 2.83
- PSNGREDIKQLIAKKIKLTAEAEE — higher, 4.06
- PSNGRTDIKQLIAKKIKLTAEAEE — lower, 3.58
- PSNGRHDIKQLIAKKIKLTAEAEE — lower, 3.61
- PSNGRQDIKQLIAKKIKLTAEAEE — lower, 3.76
- PSNGRNDIKQLIAKKIKLTAEAEE — lower, 3.3
- PSNGRMDIKQLIAKKIKLTAEAEE — lower, 2.56
- PSNGRCDIKQLIAKKIKLTAEAEE — lower, 3.26
- PSNGRKDIKQLIAKKIKLTAEAEE — lower, 3.74
- PSNGRWDIKQLIAKKIKLTAEAEE — lower, 2.91
- PSNGRPDIKQLIAKKIKLTAEAEE — lower, 3.37
- PSNGRSDIKQLIAKKIKLTAEAEE — lower, 3.46
- PSNGRIDIKQGIAKKIKLTAEAEE — lower, 3.75
- PSNGRIDIKQYIAKKIKLTAEAEE — lower, 3.42
- PSNGRIDIKQIIAKKIKLTAEAEE — lower, 3.17
- PSNGRIDIKQWIAKKIKLTAEAEE — lower, 3.67
- PSNGRIDIKQCIAKKIKLTAEAEE — lower, 3.5
- PSNGRIDIKQAIAKKIKLTAEAEE — higher, 3.83
- PSNGRIDIKQQIAKKIKLTAEAEE — lower, 3.58
- PSNGRIDIKQMIAKKIKLTAEAEE — lower, 3.22
- PSNGRIDIKQSIAKKIKLTAEAEE — lower, 3.75
- PSNGRIDIKQVIAKKIKLTAEAEE — lower, 3.57
- PSNGRIDIKQRIAKKIKLTAEAEE — higher, 3.93
- PSNGRIDIKQFIAKKIKLTAEAEE — lower, 3.38
- PSNGRIDIKQDIAKKIKLTAEAEE — higher, 4.04
- PSNGRIDIKQPIAKKIKLTAEAEE — lower, 3.66
- PSNGRIDIKQTIAKKIKLTAEAEE — higher, 4.3
- PSNGRIDIKQNIAKKIKLTAEAEE — lower, 3.6
- PSNGRIDIKQHIAKKIKLTAEAEE — higher, 3.97
- PSNGRIDIKQKIAKKIKLTAEAEE — lower, 3.68
- PSNGRIDIKQEIAKKIKLTAEAEE — higher, 4.15
- PSNGRIDIFQLIAKKIKLTAEAEE — lower, 2.06
- PSNGRIDIRQLIAKKIKLTAEAEE — lower, 2.74
- PSNGRIDIYQLIAKKIKLTAEAEE — lower, 3.03
- PSNGRIDIWQLIAKKIKLTAEAEE — lower, 2.02
- PSNGRIDIDQLIAKKIKLTAEAEE — higher, 3.87
- PSNGRIDIVQLIAKKIKLTAEAEE — lower, 2.9
- PSNGRIDIQQLIAKKIKLTAEAEE — lower, 3.47
- PSNGRIDIPQLIAKKIKLTAEAEE — lower, 3.69
- PSNGRIDITQLIAKKIKLTAEAEE — lower, 3.23
- PSNGRIDICQLIAKKIKLTAEAEE — lower, 3.25
- PSNGRIDIAQLIAKKIKLTAEAEE — lower, 3.04
- PSNGRIDISQLIAKKIKLTAEAEE — lower, 3.28
- PSNGRIDINQLIAKKIKLTAEAEE — lower, 3.66
- PSNGRIDIIQLIAKKIKLTAEAEE — lower, 2.29
- PSNGRIDIMQLIAKKIKLTAEAEE — lower, 2.99
- PSNGRIDILQLIAKKIKLTAEAEE — lower, 2.77
- PSNGRIDIEQLIAKKIKLTAEAEE — higher, 4.03
- PSNGRIDIHQLIAKKIKLTAEAEE — lower, 3.07
- PSNGRIDIGQLIAKKIKLTAEAEE — lower, 3.39
- PSNGRIPIKQLIAKKIKLTAEAEE — lower, 3.23
- PSNGRIMIKQLIAKKIKLTAEAEE — lower, 2.89
- PSNGRIHIKQLIAKKIKLTAEAEE — lower, 3.65
- PSNGRITIKQLIAKKIKLTAEAEE — lower, 2.97
- PSNGRIYIKQLIAKKIKLTAEAEE — lower, 2.35
- PSNGRIKIKQLIAKKIKLTAEAEE — lower, 3.14
- PSNGRILIKQLIAKKIKLTAEAEE — lower, 3.38
- PSNGRICIKQLIAKKIKLTAEAEE — lower, 3.12
- PSNGRIIIKQLIAKKIKLTAEAEE — lower, 3.08
- PSNGRIRIKQLIAKKIKLTAEAEE — lower, 2.94
- PSNGRISIKQLIAKKIKLTAEAEE — lower, 3.58
- PSNGRIAIKQLIAKKIKLTAEAEE — lower, 2.96
- PSNGRIVIKQLIAKKIKLTAEAEE — lower, 2.41
- PSNGRIQIKQLIAKKIKLTAEAEE — lower, 3.01
- PSNGRIFIKQLIAKKIKLTAEAEE — lower, 2.83
- PSNGRIWIKQLIAKKIKLTAEAEE — lower, 3.46
- PSNGRINIKQLIAKKIKLTAEAEE — lower, 3.33
- PSNGRIEIKQLIAKKIKLTAEAEE — lower, 3.4
- PSNGRIGIKQLIAKKIKLTAEAEE — lower, 3.02
- PSNTRIDIKQLIAKKIKLTAEAEE — lower, 3.49
- PSNNRIDIKQLIAKKIKLTAEAEE — lower, 3.76
- PSNSRIDIKQLIAKKIKLTAEAEE — lower, 3.57
- PSNCRIDIKQLIAKKIKLTAEAEE — lower, 3.33
- PSNMRIDIKQLIAKKIKLTAEAEE — lower, 3.61
- PSNLRIDIKQLIAKKIKLTAEAEE — lower, 3.48
- PSNYRIDIKQLIAKKIKLTAEAEE — lower, 2.91
- PSNVRIDIKQLIAKKIKLTAEAEE — lower, 3.04
- PSNERIDIKQLIAKKIKLTAEAEE — higher, 4.39
- PSNIRIDIKQLIAKKIKLTAEAEE — lower, 3.18
- PSNDRIDIKQLIAKKIKLTAEAEE — higher, 4.92
- PSNFRIDIKQLIAKKIKLTAEAEE — lower, 3.56
- PSNHRIDIKQLIAKKIKLTAEAEE — lower, 3.36
- PSNRRIDIKQLIAKKIKLTAEAEE — lower, 3.56
- PSNQRIDIKQLIAKKIKLTAEAEE — lower, 3.57
- PSNWRIDIKQLIAKKIKLTAEAEE — lower, 2.85
- PSNARIDIKQLIAKKIKLTAEAEE — the same, 3.77
- PSNPRIDIKQLIAKKIKLTAEAEE — higher, 4.09
- PSNGRIDIKQLEAKKIKLTAEAEE — higher, 4.35
- PSNGRIDIKQLMAKKIKLTAEAEE — lower, 3.7
- PSNGRIDIKQLQAKKIKLTAEAEE — higher, 4.17
- PSNGRIDIKQLAAKKIKLTAEAEE — lower, 3.53
- PSNGRIDIKQLTAKKIKLTAEAEE — higher, 3.89
- PSNGRIDIKQLKAKKIKLTAEAEE — higher, 3.83
- PSNGRIDIKQLNAKKIKLTAEAEE — higher, 3.99
- PSNGRIDIKQLVAKKIKLTAEAEE — lower, 3.48
- PSNGRIDIKQLRAKKIKLTAEAEE — higher, 3.85
- PSNGRIDIKQLWAKKIKLTAEAEE — lower, 2.78
- PSNGRIDIKQLCAKKIKLTAEAEE — higher, 3.83
- PSNGRIDIKQLSAKKIKLTAEAEE — higher, 3.82
- PSNGRIDIKQLLAKKIKLTAEAEE — lower, 3.17
- PSNGRIDIKQLFAKKIKLTAEAEE — lower, 3.5
- PSNGRIDIKQLDAKKIKLTAEAEE — higher, 4.28
- PSNGRIDIKQLHAKKIKLTAEAEE — higher, 3.89
- PSNGRIDIKQLYAKKIKLTAEAEE — lower, 3.19
- PSNGRIDIKQLPAKKIKLTAEAEE — lower, 3.7
- PSNGRIDIKQLGAKKIKLTAEAEE — higher, 3.9
- PSNGRIDYKQLIAKKIKLTAEAEE — higher, 4.13
- PSNGRIDSKQLIAKKIKLTAEAEE — higher, 3.99
- PSNGRIDGKQLIAKKIKLTAEAEE — higher, 3.89
- PSNGRIDMKQLIAKKIKLTAEAEE — lower, 3.44
- PSNGRIDHKQLIAKKIKLTAEAEE — lower, 3.12
- PSNGRIDCKQLIAKKIKLTAEAEE — higher, 4.06
- PSNGRIDTKQLIAKKIKLTAEAEE — higher, 4.48
- PSNGRIDPKQLIAKKIKLTAEAEE — lower, 3.38
- PSNGRIDKKQLIAKKIKLTAEAEE — lower, 3.64
- PSNGRIDVKQLIAKKIKLTAEAEE — higher, 3.88
- PSNGRIDEKQLIAKKIKLTAEAEE — higher, 4.62
- PSNGRIDDKQLIAKKIKLTAEAEE — higher, 4.48
- PSNGRIDRKQLIAKKIKLTAEAEE — higher, 4.06
- PSNGRIDNKQLIAKKIKLTAEAEE — higher, 4.01
- PSNGRIDQKQLIAKKIKLTAEAEE — higher, 3.8
- PSNGRIDLKQLIAKKIKLTAEAEE — lower, 3.62
- PSNGRIDFKQLIAKKIKLTAEAEE — lower, 3.54
- PSNGRIDAKQLIAKKIKLTAEAEE — lower, 3.42
- PSNGRIDWKQLIAKKIKLTAEAEE — lower, 3.08
- PSNGRIDIKALIAKKIKLTAEAEE — lower, 3.35
- PSNGRIDIKELIAKKIKLTAEAEE — lower, 3.73
- PSNGRIDIKFLIAKKIKLTAEAEE — lower, 2.65
- PSNGRIDIKILIAKKIKLTAEAEE — lower, 2.18
- PSNGRIDIKLLIAKKIKLTAEAEE — lower, 3.18
- PSNGRIDIKKLIAKKIKLTAEAEE — lower, 3.3
- PSNGRIDIKPLIAKKIKLTAEAEE — higher, 3.88
- PSNGRIDIKSLIAKKIKLTAEAEE — lower, 3.1
- PSNGRIDIKVLIAKKIKLTAEAEE — lower, 2.33
- PSNGRIDIKDLIAKKIKLTAEAEE — lower, 3.58
- PSNGRIDIKTLIAKKIKLTAEAEE — lower, 3.45
- PSNGRIDIKHLIAKKIKLTAEAEE — lower, 2.57
- PSNGRIDIKCLIAKKIKLTAEAEE — lower, 3.19
- PSNGRIDIKWLIAKKIKLTAEAEE — lower, 2.35
- PSNGRIDIKYLIAKKIKLTAEAEE — lower, 2.43
- PSNGRIDIKGLIAKKIKLTAEAEE — lower, 3.59
- PSNGRIDIKMLIAKKIKLTAEAEE — lower, 2.67
- PSNGRIDIKNLIAKKIKLTAEAEE — lower, 3.21
- PSNGRIDIKRLIAKKIKLTAEAEE — lower, 2.7
- PSNGRIDIKQLIPKKIKLTAEAEE — higher, 3.94
- PSNGRIDIKQLIEKKIKLTAEAEE — lower, 3.56
- PSNGRIDIKQLIMKKIKLTAEAEE — lower, 3.12
- PSNGRIDIKQLIQKKIKLTAEAEE — lower, 3.47
- PSNGRIDIKQLIHKKIKLTAEAEE — lower, 3.41
- PSNGRIDIKQLILKKIKLTAEAEE — lower, 3.13
- PSNGRIDIKQLIDKKIKLTAEAEE — higher, 4.08
- PSNGRIDIKQLISKKIKLTAEAEE — lower, 3.36
- PSNGRIDIKQLIRKKIKLTAEAEE — lower, 3.57
- PSNGRIDIKQLICKKIKLTAEAEE — lower, 2.82
- PSNGRIDIKQLIIKKIKLTAEAEE — lower, 3.3
- PSNGRIDIKQLITKKIKLTAEAEE — lower, 3.08
- PSNGRIDIKQLIGKKIKLTAEAEE — lower, 3.54
- PSNGRIDIKQLINKKIKLTAEAEE — lower, 3.35
- PSNGRIDIKQLIFKKIKLTAEAEE — lower, 2.94
- PSNGRIDIKQLIKKKIKLTAEAEE — lower, 3.48
- PSYGRIDIKQLIAKKIKLTAEAEE — lower, 3.42
